The source of these data is article PMC11661448, “Molecular basis for plasma membrane recruitment of PI4KA by EFR3” (Science Advances, 2024).

What all share (details): both partners purified
Assay [1] has as its target T1, PI4KA/TTC7B/FAM126A ΔC (PI4KA complex) (human, UniProt P42356 1-2102; Q86TV6 1-843; Q9BYI3 1-308).
T1 construct: phosphatidylinositol 4 kinase III alpha (PI4KA), human, full length; TTC7B, human, full length; FAM126A, human, residues 1 to 308 (lacks the disordered C terminus); Dimer of heterotrimers; A His-Strep tag was cleaved with TEV protease; also called PI4KA-TTC7B-FAM126A (1 to 308); PI4KA-TTC7B-FAM126A complex; source: Sf9 (MultiBac baculovirus), co-expressed, purified (HisTrap, StrepTrap, TEV …)
Kind of assay: SEC; Superose 6 Increase in 150 mM NaCl, 20 mM imidazole pH 7.0, 5% glycerol, 0.5 mM TCEP; 7.19 uM PI4KA complex with 61.8 uM EFR3A, or 6.78 uM TTC7B-FAM126A with 102.3 uM EFR3A; peaks checked by SDS-PAGE.

For assay [2], the target named is T2, TTC7B-FAM126A (1 to 308) (human, UniProt Q86TV6 1-843; Q9BYI3 1-308).
T2 construct: N-terminal His10-2x Strep-TEV tag from the pOPT vector, cleaved with TEV; also called TTC7B-FAM126A ΔC; TTC7B-FAM126A dimer; source: E. coli BL21 DE3 C41, co-expressed, purified (HisTrap, StrepTrap, TEV cleavage, SEC)
Kind of assay: BLI; His-EFR3A (wild type or mutant) at 200 nM loaded on anti-penta-His tips, dipped in TTC7B-FAM126A (wild type or mutant) at 500 nM; 25°C, 20 mM HEPES pH 7.5, 150 mM NaCl, 0.01% BSA, 0.002% Tween-20; maximum response compared with wild type. In general terms: Biolayer interferometry detects binding as a change in optical thickness at a sensor tip.

Assay [3] deals with T2, TTC7B-FAM126A (1 to 308). Put plainly: BLI; His-MBP-EFR3A (721 to 791) at 200 nM loaded on anti-penta-His tips, TTC7B-FAM126A titrated; His-MBP responses subtracted; 25°C, 20 mM HEPES pH 7.5, 150 mM NaCl, 0.01% BSA, 0.002% Tween-20; KD by one site specific nonlinear regression of the response against concentration.

B1: EFR3A (721 to 791) (domain or fragment, human, UniProt Q14156 721-791, looked up)
chain: SNTEEITFEALKKAIDTSGMEEQEKEKRRLVIEKFQKAPFEEIAAQCESKANLLHDRLAQILELTIRPPPS
notes: EFR3A, human, residues 721 to 791; No tag cleavage is described for this protein; it was eluted from StrepTrap with desthiobiotin; also called EFR3A C terminus; EFR3A C terminal fragment; source: E. coli BL21 DE3 C41, purified (HisTrap, StrepTrap, SEC); not shown: His10, N-terminal, kept
As to B1, the binding result in assay [1] was “binds”.

B2: EFR3A (721 to 791) K732E (domain or fragment, human, UniProt Q14156 721-791, looked up)
chain: SNTEEITFEALEKAIDTSGMEEQEKEKRRLVIEKFQKAPFEEIAAQCESKANLLHDRLAQILELTIRPPPS
notes: EFR3A, human, residues 721 to 791; source: E. coli BL21 DE3 C41, purified (HisTrap, StrepTrap, SEC); not shown: His10, N-terminal, kept
On to B2, for which the binding result in the assay with TTC7B-FAM126A (1 to 308) [2] is recorded as “binds”.

B3: His-MBP-EFR3A (721 to 791) (domain or fragment, human, UniProt Q14156 721-791, looked up)
chain: SNTEEITFEALKKAIDTSGMEEQEKEKRRLVIEKFQKAPFEEIAAQCESKANLLHDRLAQILELTIRPPPS
notes: source: E. coli BL21 DE3 C41, purified (HisTrap, StrepTrap, SEC); not shown: MBP, N-terminal, kept; His10, N-terminal, kept
The Kd is the free concentration of one partner at which half of the binding sites on the other are occupied at equilibrium, for simple one-to-one binding. Lower therefore signals higher affinity. B3 yielded a Kd in the assay with TTC7B-FAM126A (1 to 308) [3] of approximately 0.0235 µM.

B4: EFR3A (721 to 791) A734R (domain or fragment, human, UniProt Q14156 721-791, looked up)
chain: SNTEEITFEALKKRIDTSGMEEQEKEKRRLVIEKFQKAPFEEIAAQCESKANLLHDRLAQILELTIRPPPS
notes: as for B2
For the molecule B4, the binding result in the assay with TTC7B-FAM126A (1 to 308) [2] is “binds”.

B5: EFR3A (721 to 791) F728A (domain or fragment, human, UniProt Q14156 721-791, looked up)
chain: SNTEEITAEALKKAIDTSGMEEQEKEKRRLVIEKFQKAPFEEIAAQCESKANLLHDRLAQILELTIRPPPS
notes: as for B2
As for B5, in the assay with TTC7B-FAM126A (1 to 308) [2], the binding result is listed as “binds”.

B6: EFR3A (721 to 791) I763A (domain or fragment, human, UniProt Q14156 721-791, looked up)
chain: SNTEEITFEALKKAIDTSGMEEQEKEKRRLVIEKFQKAPFEEAAAQCESKANLLHDRLAQILELTIRPPPS
notes: as for B2
Consider B6, for which, in the assay with TTC7B-FAM126A (1 to 308) [2], the binding result was “binds”.
